The source of these data is publication PMC10649420, “Expression Patterns and Functional Analysis of Three SmTAT Genes Encoding Tyrosine Aminotransferases in Salvia miltiorrhiza” (International Journal of Molecular Sciences, 2023).

Test in all cases: aminotransferase assay, product absorbance, microplate reader
Common to all, as to assay type: biochemical, Salvia miltiorrhiza

One series relates to SmTAT3. The note with it: 100 μM PLP, 30 °C, 30 min, 20 μg/mL enzyme. The source says: aminotransferase assay, product absorbance, microplate reader on SmTAT3
Substrate in series [1]: O=C(O)C(=O)Cc1ccc(O)cc1
The conditions noted are these: 10 mM glutamate, 100 μM PLP, 30 °C, 30 min, 20 μg/mL enzyme, reverse reaction. An excerpt: (§1) aminotransferase assay, product absorbance, microplate reader on SmTAT2

Substrate in series [2]: O=C(O)C(=O)Cc1ccccc1
The conditions noted are these: 10 mM glutamate, 100 μM PLP, 30 °C, 30 min, 20 μg/mL enzyme, reverse reaction.
Source text: as §1

Substrate in series [3]: N[C@@H](Cc1ccccc1)C(=O)O
The note with it: 10 mM alpha-ketoglutarate, 100 μM PLP, 30 °C, 30 min, 20 μg/mL enzyme.
Source text: as §1

Substrate in series [4]: N[C@@H](Cc1ccc(O)cc1)C(=O)O
The conditions noted are these: 10 mM alpha-ketoglutarate, 100 μM PLP, 30 °C, 30 min, 20 μg/mL enzyme.
Source text: as §1

Substrate in series [5]: O=C(O)C(=O)Cc1ccc(O)cc1
The conditions noted are these: 10 mM glutamate, 100 μM PLP, 30 °C, 30 min, 1 μg/mL enzyme, reverse reaction. An excerpt:
(§2) aminotransferase assay, product absorbance, microplate reader on SmTAT1

Substrate in series [6]: O=C(O)C(=O)Cc1ccccc1
The note with it: 10 mM glutamate, 100 μM PLP, 30 °C, 30 min, 1 μg/mL enzyme, reverse reaction.
Source text: as §2

Substrate in series [7]: N[C@@H](Cc1ccccc1)C(=O)O
The conditions noted are these: 10 mM alpha-ketoglutarate, 100 μM PLP, 30 °C, 30 min, 1 μg/mL enzyme.
Source text: as §2

Substrate in series [8]: N[C@@H](Cc1ccc(O)cc1)C(=O)O
The note with it: 10 mM alpha-ketoglutarate, 100 μM PLP, 30 °C, 30 min, 1 μg/mL enzyme.
Source text: as §2

Where [9] appears, read: 10 mM glutamate, reverse reaction.

Take `O=C(O)C(=O)Cc1ccc(O)cc1` [4-hydroxyphenylpyruvate]: the Km in the series with SmTAT3 (setting [9]) amounted to 2220 ± 220 µM.
For the molecule `N[C@@H](Cc1ccccc1)C(=O)O` [phenylalanine], the Michaelis-Menten constant (Km) in the series with SmTAT3 (10 mM alpha-ketoglutarate) turned out to be 5470 ± 3230 µM.
As to `O=C(O)C(=O)Cc1ccccc1` [phenylpyruvate], the Michaelis constant (Km) in the series with SmTAT3 (setting [9]) came to 3910 ± 2010 µM.
Take `N[C@@H](Cc1ccc(O)cc1)C(=O)O` [tyrosine]: in the series with SmTAT3 (10 mM alpha-ketoglutarate), the Km turned out to be 2730 ± 1610 µM.

B1: SmTAT2 (Salvia miltiorrhiza) (protein)
chain: MPNSTERERERELSMENGGSAAARWRFEGNERLILAGGVTVRGVLNTVIGNLDGNDTRPVIPLGHGDPSAFPSFRTSPFAEDAVCSAVRSTKFNGYSSTVGIPAARSAVAEYLSKDLPYKLSPDDVFLTIGCTQALEAVVTVLARPGANLLLPRPGFPYYEARAGFCSLEFRHFDLLPEQDWEVDLASVEALADENTVAMVIINPGNPCGNVFKYEHLKKVAETARKLGILVISDEVYDHLTFGSNPFVPMGVFASIAPILTLGSISKRWIVPGWRLGWLVTNDPDGILTKQGIVDSIKGFLNISADPATFMQGAVPQILENTPSDFFQKIVSTLRETADICYERSKEIPCITCPSRPEGSMFAMVKLNLSLLEGIEDDMDFCCKLAKEESVILLPGFAVGLKNWLRVTFAIEPSSLDDGFLRIKAFHQRHAKKQ
For B1, the Km came to 480 ± 160 µM in series [1], 3940 ± 990 µM in [2], 6930 ± 3390 µM in series [3] and 3470 ± 1690 µM in series [4]. Besides, the maximum rate (Vmax) is 0.448 µmol/min/mg in series [1], 0.057 µmol/min/mg in series [2], 0.109 µmol/min/mg in series [3] and 0.0486 µmol/min/mg in series [4]. Besides, the kcat in series [1] was 1.35 ± 0.08 s⁻¹; in [2], 0.17 ± 0.02 s⁻¹; in series [4] it was 0.15 ± 0.03 s⁻¹. Further, the kcat/Km is 3230 ± 1240 M⁻¹ s⁻¹ in [1], 50 ± 20 M⁻¹ s⁻¹ in series [2] and 60 ± 40 M⁻¹ s⁻¹ in [4].

B2: SmTAT1 (Salvia miltiorrhiza) (protein)
chain: MELQNPAQEIDAPTTITIKGILGLLMSSTDPKESGKRVISLGIGDPTAYSCFHASNAAQEGVVEALRSTKFNGYAPTAGLPQTREAIAEYLSRDLPYKLPADSVYVTAGCTQAIEIALSVLARPGANILLPRPCFPIYGLCASFRNIEVRYFDLHPEQGWEVDLDAVADLADHNTVAMVIINPGNPCGNVYSYQHLKKIAETAKRLGIVVIADEVYGHLAFGANPFVPMGIFGSIAPVVTLGSLSKRWLVPGWRLGWLVINDPDGSLMSPKFVERIKKYCDICGGPATFIQAAVPEIVEQTQEVFFRKTINILKQTSDICYQKIEDINGITCPTKPKGAMAFMVKLNLSRMKDISDDIDFCFKLAKEESVIILPGLAVGLKNWIRITFAVDVPALEEAMERLKSFCERHSY
notes: full ORF 1236 bp (about 411 residues) with GST tag (pGEX-4T-1), soluble from E. coli Arctic Express (DE3)
Regarding B2, the Km in series [5] amounted to 2770 ± 520 µM; in series [6], 710 ± 210 µM; in series [7], 3080 ± 990 µM; in series [8] it was 310 ± 110 µM. Also, the Vmax in [5] is 3.19 µmol/min/mg; in series [6], 3.63 µmol/min/mg; in series [7], 4.36 µmol/min/mg; in series [8] it was 6.88 µmol/min/mg. Besides, the kcat in series [5] came to 9.21 ± 0.78 s⁻¹; in series [6] it was 10.4 ± 0.39 s⁻¹; in series [7] it was 12.6 ± 1.43 s⁻¹; in series [8], 19.8 ± 0.93 s⁻¹. The kcat/Km was found to be 3500 ± 940 M⁻¹ s⁻¹ in [5], 16300 ± 4620 M⁻¹ s⁻¹ in [6], 4680 ± 2020 M⁻¹ s⁻¹ in series [7] and 74400 ± 29400 M⁻¹ s⁻¹ in [8].
